Experimental data reported in patent publication US20090169520A1, “Compounds, Pharmaceutical Compositions and Therapeutic Methods of Preventing and Treating Diseases and Disorders Associated With Amyloid Fibril Formation” (YISSUM RESEARCH DEVELOPMENT COMPANY OF THE HEBREW …, priority 2005, published 2009).
Marks after values point to notes of the source that are not given here.

T1: Amylin (Homo sapiens, UniProt P10997)
T1 sequence (P10997 34-70 limits assumed): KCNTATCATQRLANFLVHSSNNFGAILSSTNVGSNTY


Key:
Aβ (1-40) peptide = target: T2, Aβ (1-40) peptide (Homo sapiens, UniProt P05067); experiment: In vitro formation of amyloid fibril from Aβ (1-40), Thioflavin T fluorescence; assay type: biochemical; settings: for Lag (fold change) / Rate (fold change): relative to No addition, asterisk = statistically significant; for effect on Aβ fibril formation (in words): 33 μM Aβ
T2 construct: synthetic Aβ (1-40) peptide; purchased Biosource, Camarillo, Calif., USA; host or cells: chemical synthesis
T2 sequence (P05067 672-711 limits assumed): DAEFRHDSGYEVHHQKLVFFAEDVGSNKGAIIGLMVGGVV
Excerpt: In vitro formation of amyloidfibril—In vitro formation of amyloid fibril was in the presence of the synthetic Aβ (1-40) peptide (Biosource, Camarillo, Calif., USA) as a precursor. The reporter molecule was Thioflavin T (ThT) (Sigma, Cat. No. T-3516, Jerusalem, Israel), a benzothiazole dye that undergoes a shift in its excitation spectrum (from 340 nm to 450 nm) when interacting with β-sheet amyloid structures. The resultant ThT fluorescence signal is proportional to the amount of amyloid formed (LeVine, 1993). A stock solution of Aβ in dimethylsulfoxide (DMSO) was diluted with phosphate-buffered saline (PBS) containing 0.02% Na-Azid to a final concentration of 162 μM and 20 μl of the diluted Aβ solution was placed in each well of a 96 multiwell plate (Nunc, Roskilde, Denmark). After 20 minutes of pre-incubation at room temperature of the Aβ samples (20 μl), 80 μl of 1.25 μM ThT in 50 mM glycine buffer, pH 8.5, was added. Incubation was with shaking at 200 rpm for 6 to 8 hours at the noted temperatures. Fluorescence was measured continuously or at 30-40 minute intervals, using a Spectro-fluorometer (Tecan, Maennedorf, Switzerland). Excitation and emission wavelengths were 450 nm and 485 nm, respectively. Enhancement of the fibrillation process by the different combinations of water-dissolved cholinesterases and peptides mimicking fragments thereof, was evaluated by dissecting the time curves into two stages: the lag before the onset of the fluorescence increase (the nucleation process) and the average rate of fluorescence increase at several time points (rate of fibrils formation). Statistics analysis was performed using the Kaleidagraph Software (Reading, Pa., USA).
BChE attenuates amyloid fibrils formation—Amyloid fibril (Aβ) formation was quantified by measuring changes in ThT fluorescence. As predicted, Aβ fibrils were spontaneously formed in vitro provided that the Aβ peptide was present above 5 μM. […] Reactions were performed in the absence or presence of increasing concentrations of purified human BChE (SEQ ID NO:2; FIG. 1a), recombinant ACHE-S (SEQ ID NO:6; FIG. 1b) or both (FIGS. 1c and d). […] Due to the complex kinetics of the fibril formation process the apparent rate of change in ThT fluorescence was repeatedly determined during the exponential phase of increase in its signal (at 390±20 minutes). […] In contrast, addition of similar doses of AChE to Aβ, predictably shortened by half the lag time prior to fibril formation, again in a dose dependent manner (FIG. 1e). The lag period therefore decreased from 240 minutes to 150 minutes and the maximal rate of fibril formation increased from 0.057 to 0.116 fluorescence units (FU)/min for Aβ alone as compared to Aβ in the presence of 0.36 μM AChE-S (FIG. 1b and Table 7, hereinbelow). When increasing doses of hBChE were added to a combined mix of 33 μM Aβ with 0.36 μM AChE-S, a dose-dependent interference with the fibril formation process was observed (FIG. 1c and 2a). Thus, BChE is capable of reducing the rate of fibrillation of Aβ alone, or Aβ which is formed in the presence of AChE.

[1] = single C-terminal substitution (A539T); Bartels et al., 1992; cited from earlier work
[2] = Rate of hydrolysis of AThCh/BThCh by cholinesterases; assay type: biochemical; settings: for Rate of hydrolysis of AThCh/BThCh: average of three experiments
Experimental: BChE biochemistry—Serum cholinesterase catalytic activity measurements are based on a spectrophotometric method adapted to a microtiter plate assay. Butyrylthiocholine (BTCh, Sigma) hydrolysis rates are measured following 20 minutes incubation with 5×10^−5 M tetraisopropyl pyrophosphoramide (iso-OMPA, Sigma), a specific BChE inhibitor or 10^−5 M 1,5-bis(4-allyldimethylammoniumphenyl) pentan-[…] dibromide (BW284c51, Sigma, A9013), a specific AChE inhibitor. Addition of both inhibitors reduces hydrolysis to the rate of spontaneous hydrolysis measured in control reactions lacking enzyme or substrate, attesting to the specificity of these serum activities. Readings at 405 nm are repeated at 2-minute intervals for 20 minutes. Non-enzymatic hydrolysis of substrate is subtracted from the total rate of hydrolysis. Enzyme activity is calculated using the molar extinction coefficient for 5-thio-2-nitrobenzoate [13,600 M^−1×cm^−1] [Ellman, G. L. et al. (1961) Biochem. Pharmacol. 7:88-95].
In addition, BChE is soluble and thus accessible to circulating ACh. Moreover, the substrate of preference of BChE is different than that of ACHE. Thus, over the range of substrate concentrations 0.1 to 25 mM, the ratio of hydrolysis of AThCh relative to BThCh differs between the enzymes (Table 8, hereinbelow).

Amylin = target: T1, Amylin; experiment: Amylin amyloid fibril formation, Thioflavin T fluorescence; assay type: biochemical; settings: 20 μM amylin
Experimental: FIG. 6 is a graph illustrating the effect of BChE in preventing amylin amyloid fibril formation. Amylin at a concentration of 20 μM was incubated with Thiofalvin T (at a concentration of 1 μM) and the formation of amyloid fibril was measured by following the Thiofalvin T fluorescence intensity [excitation (450 nm); emission (485 nm)] in the presence or absence of 0.24 μM BChE (purified from pooled human plasma). Note that the addition of BChE increases the lag time for amylin fibrillation from 30 minutes to 110 minutes.
To test the ability of BChE to prevent amylin amyloid fibril formation, the present inventors have tested the rate of amylin fibrillation (at a concentration of 20 μM) in the presence or absence of 0.24 μM BChE (purified from pooled human serum). As is shown in FIG. 6, BChE completely attenuated the formation of amylin fibrils for 100 minutes, and increased the lag time of amyloid fibril formation from 30 minutes to 110 minutes.

Molecule | Lag (fold change) (Aβ (1-40) peptide) | Rate (fold change) (Aβ (1-40) peptide) | Rate of hydrolysis of AThCh/BThCh ([2]; Substrate 0.1 mM) | Rate of hydrolysis of AThCh/BThCh ([2]; Substrate 25.0 mM) | effect on Aβ fibril formation (in words) (Aβ (1-40) peptide; ThT fluorescence) | further results
AChE-S: recombinant human ACHE-S, prepared from an ACHE cDNA clone (Sigma) (protein, listed as Homo sapiens) MRPPQCLLHTPSLASPLLLLLLWLLGGGVGAEGREDAELLVTVRGGRLRGIRLKTPGGPVSAFLGIPFAEPPMGPRRFLPPEPKQPWSGVVDATTFQSVCYQYVDTLYPGFEGTEMWNPNRELSEDCLYLNVWTPYPRPTSPTPVLVWIYGGGFYSGASSLDVYDGRFLVQAERTVLVSMNYRVGAFGFLALPGSREAPGNVGLLDQRLALQWVQENVAAFGGDPTSVTLFGESAGAASVGMHLLSPPSRGLFHRAVLQSGAPNGPWATVGMGEARRRATQLAHLVGCPPGGTGGNDTELVACLRTRPAQVLVNHEWHVLPQESVFRFSFVPVVDGDFLSDTPEALINAGDFHGLQVLVGVVKDEGSYFLVYGAPGFSKDNESLISRAEFLAGVRVGVPQVSDLAAEAVVLHYTDWLHPEDPARLREALSDVVGDHNVVCPVAQLAGRLAAQGARVYAYVFEHRASTLSWPLWMGVPHGYEIEFIFGIPLDPSRNYTAEEKIFAQRLMRYWANFARTGDPNEPRDPKAPQWPPYTAGAQQYVSLDLRPLEVRRGLRAQACAFWNRFLPKLLSATDTLDEAERQWKAEFHRWSSYMVHWKNQFDHYSKQDRCSDL | 0.6* fold change | 2.1* fold change |  |  |  | maximal rate of fibril formation (Aβ (1-40) peptide; Aβ in the presence of 0.36 μM AChE-S (Aβ alone 0.057)): 0.116 FU/min; lag period prior to fibril formation (Aβ (1-40) peptide; Aβ in the presence of 0.36 μM AChE-S (Aβ alone 240 minutes)): 150 min
BChE K variant: BChE variant with a single C-terminal substitution (A539T) (protein, UniProt P06276 29-602, looked up, variant A539T) Cholinesterase: EDDIIIATKNGKVRGMNLTVFGGTVTAFLGIPYAQPPLGRLRFKKPQSLTKWSDIWNATKYANSCCQNIDQSFPGFHGSEMWNPNTDLSEDCLYLNVWIPAPKPKNATVLIWIYGGGFQTGTSSLHVYDGKFLARVERVIVVSMNYRVGALGFLALPGNPEAPGNMGLFDQQLALQWVQKNIAAFGGNPKSVTLFGESAGAASVSLHLLSPGSHSLFTRAILQSGSFNAPWAVTSLYEARNRTLNLAKLTGCSRENETEIIKCLRNKDPQEILLNEAFVVPYGTPLSVNFGPTVDGDFLTDMPDILLELGQFKKTQILVGVNKDEGTAFLVYGAPGFSKDNNSIITRKEFQEGLKIFFPGVSEFGKESILFHYTDWVDDQRPENYREALGDVVGDYNFICPALEFTKKFSEWGNNAFFYYFEHRSSKLPWPEWMGVMHGYEIEFVFGLPLERRDNYTKAEEILSRSIVKRWANFAKYGNPNETQNNSTSWPVFKSTEQKYLTLNTESTRIMTKLRAQQCRFWTSFFPKVLEMTGNIDETEWEWKAGFHRWNNYMMDWKNQFNDYTSKKESCVGL |  |  |  |  |  | reduction in hydrolytic activity [1]: 30%
hRBC AChE: human erythrocytes ACHE compared with serum BChE in Table 8 (protein) EGREDAELLVTVRGGRLRGIRLKTPGGPVSAFLGIPFAEPPMGPRRFLPPEPKQPWSGVVDATTFQSVCYQYVDTLYPGFEGTEMWNPNRELSEDCLYLNVWTPYPRPTSPTPVLVWIYGGGFYSGASSLDVYDGRFLVQAERTVLVSMNYRVGAFGFLALPGSREAPGNVGLLDQRLALQWVQENVAAFGGDPTSVTLFGESAGAASVGMHLLSPPSRGLFHRAVLQSGAPNGPWATVGMGEARRRATQLAHLVGCPPGGTGGNDTELVACLRTRPAQVLVNHEWHVLPQESVFRFSFVPVVDGDFLSDTPEALINAGDFHGLQVLVGVVKDEGSYFLVYGAPGFSKDNESLISRAEFLAGVRVGVPQVSDLAAEAVVLHYTDWLHPEDPARLREALSDVVGDHNVVCPVAQLAGRLAAQGARVYAYVFEHRASTLSWPLWMGVPHGYEIEFIFGIPLDPSRNYTAEEKIFAQRLMRYWANFARTGDPNEPRDPKAPQWPPYTAGAQQYVSLDLRPLEVRRGLRAQACAFWNRFLPKLLSATDTLDEAERQWKAEFHRWSSYMVHWKNQFDHYSKQDRCSDL |  |  | 120 | 7.2 |  | AThCh hydrolysis ratio difference of AChE:BChE ([2]; at 0.1 mM substrate): 245 fold; AThCh hydrolysis ratio difference of AChE:BChE ([2]; at 25 mM substrate): 36 fold
BChE: Purified human BChE from human serum (Sigma) (protein, listed as Homo sapiens) MHSKVTIICIRFLFWFLLLCMLIGKSHTEDDIIIATKNGKVRGMNLTVFGGTVTAFLGIPYAQPPLGRLRFKKPQSLTKWSDIWNATKYANSCCQNIDQSFPGFHGSEMWNPNTDLSEDCLYLNVWIPAPKPKNATVLIWIYGGGFQTGTSSLHVYDGKFLARVERVIVVSMNYRVGALGFLALPGNPEAPGNMGLFDQQLALQWVQKNIAAFGGNPKSVTLFGESAGAASVSLHLLSPGSHSLFTRAILQSGSFNAPWAVTSLYEARNRTLNLAKLTGCSRENETEIIKCLRNKDPQEILLNEAFVVPYGTPLSVNFGPTVDGDFLTDMPDILLELGQFKKTQILVGVNKDEGTAFLVYGAPGFSKDNNSIITRKEFQEGLKIFFPGVSEFGKESILFHYTDWVDDQRPENYREALGDVVGDYNFICPALEFTKKFSEWGNNAFFYYFEHRSSKLPWPEWMGVMHGYEIEFVFGLPLERRDNYTKAEEILSRSIVKRWANFAKYGNPNETQNNSTSWPVFKSTEQKYLTLNTESTRIMTKLRAQQCRFWTSFFPKVLEMTGNIDEAEWEWKAGFHRWNNYMMDWKNQFNDYTSKKESCVGL | 1.4* fold change | 0.3* fold change | 0.45 | 0.20 | prolonged the lag and reduced the apparent rate of amyloid formation | BChE capacity to hydrolyze ACh, fold lower than that of AChE ([2]; increased / high ACh concentrations (as in 25 mM)): 12 fold; BChE capacity of ACh hydrolysis in the circulation, fold lower than that of AChE ([2]; normal circumstances, low ACh): ca. 80 fold; time for which formation of amylin fibrils was completely attenuated (Amylin; 0.24 μM BChE): 100 min; lag time of amylin amyloid fibril formation (Amylin; 1 μM ThT, 0.24 μM BChE (without BChE 30 minutes)): 110 min; time for which fibril formation was totally prevented (Aβ (1-40) peptide; 0.4 μM BChE added to 33 μM Aβ): over 600 minutes; concentration needed for complete attenuation of Aβ fibrillation (Aβ (1-40) peptide; attenuation for 400 minutes of incubation, ThT fluorescence): 30000 ng/mL
ASP63: synthetic AChE-S C-terminal peptide, mimics residues 548-610 in hAChE (ASP63 Synthetic peptide, synthetic AChE-S C-terminal peptide, mimics residues 548-610 in hAChE) PLEVRRGLRAQACAFWNRFLPKLLSATDTLDEAERQWKAEFHRWSSYMVHWKNQFDHYSKQDR | 1.5 fold change | 0.7 fold change |  |  | no significant effect on amyloid formation | 
